From patent publication US20260234247A1 (published 2026)

B1: LK-RB2-32 (antibody, human IgG4 S228P, kappa, V domains shown)
VH: DVQLQESGPGLVKPSQSLSLTCSVTGYSITSGYYWNWIRQFPGNKLEWMGYISFDGSNHYNPSLRNRISITRDTFKNQFFLKLNSVTTEDTATFYCTRRDYNWFAYWGQGTLVTVSA
VL: DIVLTQSPVTLSVTPGDSVSLSCRASQNINKNLHWYQQRSHESPRLLIKYVSQSISGIPSRFSGSGSGTDFTLSINSVETEDFGMYFCQQSNSWPLTFGAGTKLELRR
B2: LK-RB2-41 (antibody, human IgG4 S228P, kappa, V domains shown)
VH: EVQLQLSGPELVKPGASVKMSCKASGYTFTDYNMHWVKQSHGKSLEWIGYINPNNGGTTYNQKFKGKATLTVNKSSSTAYMELRSLTSEDSAVYYCARAPYYGSSYLLAYWGQGTLVTVSA
VL: DIVMTQSHKFMSTSVGDRVSITCKASQDVSTAVAWYQQKPGQSPKLLIYSASYRYTGVPDRFTGSGSGTDFTFTISSVQAEDLAIYYCQQHYSIPWTFGGGTKLEIKR
B3: LK-RB1-9 (antibody, human IgG4 S228P, kappa, V domains shown)
VH: QIQLVQSGPELKKPGETVKISCTASGYTFTTYGMSWVKQAPGKGLKWMGWINTYSGVPTYADDFKGRFAFSLETSASTAYLEINNVKNEDTATYFCARRRRTYHGYLCFDYWGQGTTLTVSS
VL: DIQMTQSPVSLSASVGETVTITCETSENIYGALNWYQRKQGKSPQLLIYGATNLADGMSSRFSGSGSGRQYSLEISSLHPDDVASYYCQNVLNTPWTFGGGTKLEIKR
notes: Anti-LILRB1 antibody from mouse hybridoma; parental antibody of LK-RB1-9.h1 to h3
B4: LK-RB1-9.h2 (antibody, human IgG4, kappa, V domains shown)
VH: QVQLVQSGSELKKPGASVKVSCTASGYTFTTYGMSWVRQAPGQGLKWMGWINTYSGVPTYADDFKGRFVFSLDTSVSTAYLQISSLKAEDTAVYFCARRRRTYHGYLSFDYWGQGTTVTVSS
VL: DIQMTQSPSSLSASVGDRVTITCETSENIYGALNWYQQKPGKAPKLLIYGATNLAEGVPSRFSGSGSGTDYTFTISSLQPEDIATYYCQNVLNTPWTFGGGTKLEIKR
notes: Humanized form of LK-RB1-9
B5: LK-RB1-9.h1 (antibody, human IgG4, kappa, V domains shown)
VH: QVQLVQSGSELKKPGASVKVSCKASGYTFTTYGMSWVRQAPGQGLEWMGWINTYSGVPTYADDFKGRFVFSLDTSVSTAYLQISSLKAEDTAVYYCARRRRTYHGYLSFDYWGQGTTVTVSS
VL: DIQMTQSPSSLSASVGDRVTITCETSENIYGALNWYQQKPGKAPKLLIYGATNLAEGVPSRFSGSGSGTDFTFTISSLQPEDIATYYCQNVLNTPWTFGGGTKLEIKR
notes: Humanized form of LK-RB1-9
B6: LK-RB1-9.h3 (antibody, human IgG4, kappa, V domains shown)
VH: QVQLVQSGSELKKPGASVKVSCTASGYTFTTYGMSWVKQAPGQGLKWMGWINTYSGVPTYADDFKGRFVFSLDTSVSTAYLQISSLKAEDTAVYFCARRRRTYHGYLSFDYWGQGTTVTVSS
VL: DIQMTQSPSSLSASVGDRVTITCETSENIYGALNWYQQKPGKAPKLLIYGATNLAEGVPSRFSGSGSGTDYTFTISSLQPEDIATYYCQNVLNTPWTFGGGTKLEIKR
notes: Humanized form of LK-RB1-9
B7: LK-RBi-01 (bispecific antibody, human IgG4 S228P, kappa)
heavy: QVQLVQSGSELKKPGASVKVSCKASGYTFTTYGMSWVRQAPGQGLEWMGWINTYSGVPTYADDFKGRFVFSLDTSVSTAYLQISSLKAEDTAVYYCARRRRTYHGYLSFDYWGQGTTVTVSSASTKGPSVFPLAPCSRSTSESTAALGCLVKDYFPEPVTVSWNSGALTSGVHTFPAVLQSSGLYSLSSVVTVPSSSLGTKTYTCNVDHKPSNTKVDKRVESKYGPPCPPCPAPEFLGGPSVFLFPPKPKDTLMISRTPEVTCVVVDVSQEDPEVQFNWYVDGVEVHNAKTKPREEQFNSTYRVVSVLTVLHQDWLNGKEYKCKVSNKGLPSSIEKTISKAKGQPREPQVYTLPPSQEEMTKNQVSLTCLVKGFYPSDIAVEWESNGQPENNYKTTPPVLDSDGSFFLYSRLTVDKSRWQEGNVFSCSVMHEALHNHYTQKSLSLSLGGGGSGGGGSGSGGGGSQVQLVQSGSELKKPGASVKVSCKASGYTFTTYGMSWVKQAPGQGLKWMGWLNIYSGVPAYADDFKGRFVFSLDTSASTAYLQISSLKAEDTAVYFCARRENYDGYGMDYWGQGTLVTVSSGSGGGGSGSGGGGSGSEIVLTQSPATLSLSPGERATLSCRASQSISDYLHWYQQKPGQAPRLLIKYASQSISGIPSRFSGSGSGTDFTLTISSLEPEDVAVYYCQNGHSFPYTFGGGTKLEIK
light: DIQMTQSPSSLSASVGDRVTITCETSENIYGALNWYQQKPGKAPKLLIYGATNLAEGVPSRFSGSGSGTDFTFTISSLQPEDIATYYCQNVLNTPWTFGGGTKLEIKRTVAAPSVFIFPPSDEQLKSGTASVVCLLNNFYPREAKVQWKVDNALQSGNSQESVTEQDSKDSTYSLSSTLTLSKADYEKHKVYACEVTHQGLSSPVTKSFNRGEC
B8: LK-RBi-02 (bispecific antibody, human IgG4 S228P, kappa)
heavy: not shown
light: DIQMTQSPSSLSASVGDRVTITCETSENIYGALNWYQQKPGKAPKLLIYGATNLAEGVPSRFSGSGSGTDFTFTISSLQPEDIATYYCQNVLNTPWTFGGGTKLEIKRTVAAPSVFIFPPSDEQLKSGTASVVCLLNNFYPREAKVQWKVDNALQSGNSQESVTEQDSKDSTYSLSSTLTLSKADYEKHKVYACEVTHQGLSSPVTKSFNRGEC
B9: LK-RBi-06 (bispecific antibody, human IgG4 S228P, kappa)
heavy: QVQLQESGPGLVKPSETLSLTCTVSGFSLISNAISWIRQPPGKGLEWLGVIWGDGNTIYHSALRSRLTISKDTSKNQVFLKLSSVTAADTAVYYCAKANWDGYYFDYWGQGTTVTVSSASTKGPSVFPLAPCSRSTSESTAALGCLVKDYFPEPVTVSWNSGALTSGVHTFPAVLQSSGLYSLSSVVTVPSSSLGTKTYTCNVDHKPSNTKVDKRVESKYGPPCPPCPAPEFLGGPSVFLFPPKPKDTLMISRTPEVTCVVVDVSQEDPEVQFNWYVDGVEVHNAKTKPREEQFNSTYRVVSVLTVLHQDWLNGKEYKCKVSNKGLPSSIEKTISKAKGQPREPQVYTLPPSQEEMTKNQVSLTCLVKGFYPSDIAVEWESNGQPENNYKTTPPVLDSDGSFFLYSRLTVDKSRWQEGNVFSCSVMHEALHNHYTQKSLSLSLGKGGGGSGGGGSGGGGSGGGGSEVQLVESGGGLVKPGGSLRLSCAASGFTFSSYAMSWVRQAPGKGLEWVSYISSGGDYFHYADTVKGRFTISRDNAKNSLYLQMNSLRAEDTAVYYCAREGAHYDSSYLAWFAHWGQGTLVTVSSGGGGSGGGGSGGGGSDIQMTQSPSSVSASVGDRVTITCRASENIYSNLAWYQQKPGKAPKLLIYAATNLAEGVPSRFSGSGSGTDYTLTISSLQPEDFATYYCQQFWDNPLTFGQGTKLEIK
light: DIQMTQSPSTLSASVGDRVTITCHASQSVDFWLNWYQQKPGKAPKLLISKASNLHTGVPSRFSGSGSGTEFTLTISSLQPDDFATYYCQQGQSYPLTFGQGTKLEIKRTVAAPSVFIFPPSDEQLKSGTASVVCLLNNFYPREAKVQWKVDNALQSGNSQESVTEQDSKDSTYSLSSTLTLSKADYEKHKVYACEVTHQGLSSPVTKSFNRGEC
B10: LK-RBi-07 (bispecific antibody, human IgG4 S228P, kappa)
heavy: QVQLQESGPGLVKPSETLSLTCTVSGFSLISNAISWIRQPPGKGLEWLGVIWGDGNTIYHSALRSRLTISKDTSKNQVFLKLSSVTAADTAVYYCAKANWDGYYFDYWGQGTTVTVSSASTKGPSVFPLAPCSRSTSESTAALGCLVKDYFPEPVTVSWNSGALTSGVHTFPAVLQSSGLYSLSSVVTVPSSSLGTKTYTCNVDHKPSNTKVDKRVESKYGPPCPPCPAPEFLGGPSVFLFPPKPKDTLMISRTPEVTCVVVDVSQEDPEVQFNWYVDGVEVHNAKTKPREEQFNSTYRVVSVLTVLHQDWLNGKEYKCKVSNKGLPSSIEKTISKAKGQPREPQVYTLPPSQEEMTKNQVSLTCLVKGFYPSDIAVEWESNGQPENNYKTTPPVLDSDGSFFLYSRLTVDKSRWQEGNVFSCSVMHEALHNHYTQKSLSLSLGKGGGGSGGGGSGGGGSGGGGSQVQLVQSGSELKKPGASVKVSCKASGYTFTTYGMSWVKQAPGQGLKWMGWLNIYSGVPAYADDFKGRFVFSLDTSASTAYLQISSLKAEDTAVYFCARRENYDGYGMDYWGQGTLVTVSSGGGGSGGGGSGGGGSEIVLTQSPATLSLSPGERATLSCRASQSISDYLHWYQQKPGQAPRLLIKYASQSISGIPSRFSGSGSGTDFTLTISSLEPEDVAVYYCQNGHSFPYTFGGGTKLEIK
light: DIQMTQSPSTLSASVGDRVTITCHASQSVDFWLNWYQQKPGKAPKLLISKASNLHTGVPSRFSGSGSGTEFTLTISSLQPDDFATYYCQQGQSYPLTFGQGTKLEIKRTVAAPSVFIFPPSDEQLKSGTASVVCLLNNFYPREAKVQWKVDNALQSGNSQESVTEQDSKDSTYSLSSTLTLSKADYEKHKVYACEVTHQGLSSPVTKSFNRGEC
B11: LK-RBi-09 (bispecific antibody, human IgG4 S228P, kappa)
heavy: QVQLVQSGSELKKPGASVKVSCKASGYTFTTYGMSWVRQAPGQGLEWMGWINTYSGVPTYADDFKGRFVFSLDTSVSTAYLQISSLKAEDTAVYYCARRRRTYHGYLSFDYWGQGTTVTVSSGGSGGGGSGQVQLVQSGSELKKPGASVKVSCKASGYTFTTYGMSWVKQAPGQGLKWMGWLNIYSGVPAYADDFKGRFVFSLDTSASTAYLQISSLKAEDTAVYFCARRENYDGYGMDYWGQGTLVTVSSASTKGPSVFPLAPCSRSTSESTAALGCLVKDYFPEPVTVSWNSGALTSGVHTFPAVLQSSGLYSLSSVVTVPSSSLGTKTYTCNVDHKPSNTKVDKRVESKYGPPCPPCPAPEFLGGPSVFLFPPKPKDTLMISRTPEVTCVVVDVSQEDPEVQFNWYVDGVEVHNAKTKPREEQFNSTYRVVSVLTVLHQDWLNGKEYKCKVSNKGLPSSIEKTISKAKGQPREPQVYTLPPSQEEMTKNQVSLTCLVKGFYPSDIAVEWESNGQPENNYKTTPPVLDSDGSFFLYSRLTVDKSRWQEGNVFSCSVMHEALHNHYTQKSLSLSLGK
light: DIQMTQSPSSLSASVGDRVTITCETSENIYGALNWYQQKPGKAPKLLIYGATNLAEGVPSRFSGSGSGTDFTFTISSLQPEDIATYYCQNVLNTPWTFGGGTKLEIKGGSGGGGSGEIVLTQSPATLSLSPGERATLSCRASQSISDYLHWYQQKPGQAPRLLIKYASQSISGIPSRFSGSGSGTDFTLTISSLEPEDVAVYYCQNGHSFPYTFGGGTKLEIKRTVAAPSVFIFPPSDEQLKSGTASVVCLLNNFYPREAKVQWKVDNALQSGNSQESVTEQDSKDSTYSLSSTLTLSKADYEKHKVYACEVTHQGLSSPVTKSFNRGEC
B12: LK-RBi-10 (bispecific antibody, human IgG4 S228P, kappa)
heavy: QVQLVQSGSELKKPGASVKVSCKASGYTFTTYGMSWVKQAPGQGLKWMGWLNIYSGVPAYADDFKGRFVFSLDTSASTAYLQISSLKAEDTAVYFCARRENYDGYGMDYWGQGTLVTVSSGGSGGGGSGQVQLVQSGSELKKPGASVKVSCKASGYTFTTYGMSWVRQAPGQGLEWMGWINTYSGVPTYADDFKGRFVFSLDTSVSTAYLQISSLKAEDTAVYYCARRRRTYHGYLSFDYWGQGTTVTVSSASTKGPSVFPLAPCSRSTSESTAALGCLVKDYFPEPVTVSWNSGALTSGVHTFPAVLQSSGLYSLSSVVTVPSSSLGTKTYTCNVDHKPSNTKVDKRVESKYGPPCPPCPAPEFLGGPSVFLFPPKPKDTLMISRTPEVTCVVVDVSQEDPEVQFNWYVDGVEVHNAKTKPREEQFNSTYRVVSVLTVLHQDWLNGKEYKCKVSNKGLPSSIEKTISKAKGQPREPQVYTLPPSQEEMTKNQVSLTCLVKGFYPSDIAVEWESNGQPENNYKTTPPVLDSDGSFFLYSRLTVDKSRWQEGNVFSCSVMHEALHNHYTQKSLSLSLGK
light: EIVLTQSPATLSLSPGERATLSCRASQSISDYLHWYQQKPGQAPRLLIKYASQSISGIPSRFSGSGSGTDFTLTISSLEPEDVAVYYCQNGHSFPYTFGGGTKLEIKGGSGGGGSGDIQMTQSPSSLSASVGDRVTITCETSENIYGALNWYQQKPGKAPKLLIYGATNLAEGVPSRFSGSGSGTDFTFTISSLQPEDIATYYCQNVLNTPWTFGGGTKLEIKRTVAAPSVFIFPPSDEQLKSGTASVVCLLNNFYPREAKVQWKVDNALQSGNSQESVTEQDSKDSTYSLSSTLTLSKADYEKHKVYACEVTHQGLSSPVTKSFNRGEC
B13: LK-RBi-11 (bispecific antibody, human IgG4 S228P, kappa)
heavy: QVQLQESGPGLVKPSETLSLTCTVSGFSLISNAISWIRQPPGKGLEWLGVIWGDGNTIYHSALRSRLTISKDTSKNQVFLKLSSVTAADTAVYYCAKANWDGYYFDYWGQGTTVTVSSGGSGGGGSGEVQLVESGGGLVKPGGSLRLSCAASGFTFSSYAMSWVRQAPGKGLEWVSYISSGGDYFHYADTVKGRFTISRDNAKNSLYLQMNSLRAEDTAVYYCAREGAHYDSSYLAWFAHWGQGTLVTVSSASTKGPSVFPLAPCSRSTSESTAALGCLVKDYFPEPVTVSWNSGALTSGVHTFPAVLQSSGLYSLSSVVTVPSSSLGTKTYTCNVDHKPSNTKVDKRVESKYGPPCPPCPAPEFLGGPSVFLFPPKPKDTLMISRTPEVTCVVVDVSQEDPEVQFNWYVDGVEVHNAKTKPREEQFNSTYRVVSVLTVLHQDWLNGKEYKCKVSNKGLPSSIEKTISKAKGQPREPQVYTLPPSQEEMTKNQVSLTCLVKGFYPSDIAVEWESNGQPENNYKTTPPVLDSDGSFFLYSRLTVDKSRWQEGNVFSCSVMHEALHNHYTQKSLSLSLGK
light: DIQMTQSPSTLSASVGDRVTITCHASQSVDFWLNWYQQKPGKAPKLLISKASNLHTGVPSRFSGSGSGTEFTLTISSLQPDDFATYYCQQGQSYPLTFGQGTKLEIKGGSGGGGSGDIQMTQSPSSVSASVGDRVTITCRASENIYSNLAWYQQKPGKAPKLLIYAATNLAEGVPSRFSGSGSGTDYTLTISSLQPEDFATYYCQQFWDNPLTFGQGTKLEIKRTVAAPSVFIFPPSDEQLKSGTASVVCLLNNFYPREAKVQWKVDNALQSGNSQESVTEQDSKDSTYSLSSTLTLSKADYEKHKVYACEVTHQGLSSPVTKSFNRGEC
B14: hz73D1.v1 (antibody, human IgG4 S228P, kappa, V domains shown)
VH: QVQLVQSGAEVKKPGASVKVSCKASGYTFTDYYINWVRQAPGQGLEWMGNVNPNDGGTTYNQKFKGRVTMTTDTSTSTAYMELRSLRSDDTAVYYCARREIYFYGTIYYYAMDYWGQGTLVTVSS
VL: DIQLTQSPSFLSASVGDRVTITCRASESVDYYGNSFMYWYQQKPGKAPKLLIYFASNLESGVPSRFSGSGSGTEFTLTISSLQPEDFATYYCQQNNEDPWTFGGGTKVEIKR
B15: 15G8 (antibody, human IgG4 S228P, kappa, V domains shown)
VH: DVQLQGSGPGLVKPSETLSLTCSVTGYSITSGYYWNWIRQFPGKKLEWMGYISYDGSNNYNPSLKNRITISRDTSKNQFSLKLNSVTAADTATYYCAHGYSYYYAMDAWGQGTSVTVSS
VL: DIQMTQSPSSLSASVGDRVTITCRTSQDISNYLNWYQQKPGKAVKLLISYTSRLHSGVPSRFSGSGSGTDYTLTISSLQPEDFATYYCQQGNTLPTFGQGTKLEIKR
B16: J19.h1 (antibody, human IgG4 S228P, kappa, V domains shown)
VH: QITLKESGPTLVKPTQTLTLTCTFSGFSLNTYAMGVSWIRQPPGKALEWLASIWWNGNKYNNPSLKSRLTVTKDTSKNQVVLTMTNMDPVDTATYYCAHSRIIRFTDYVMDAWGQGTLVTVSS
VL: DIQMTQSPSSLSTSVGDRVTITCRASEDIYNDLAWYQQKPGKAPKLLIYNANSLHTGVASRFSGSGSGTDFTFTISSLQPEDVATYFCQQYYDYPLTFGQGTKLEIKR

Key:
[1] = molecular target: T1, human LILRB2 (human, UniProt Q8N423 22-460, limits assumed); assay: Octet off-rate ranking;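 further: antibody dissociation rate constants against cynomolgus LILRB2 plus human LILRB1, LILRB2, LILRA1 and LILRA2, measured on an Octet instrument to rank binding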
T1 construct: also called hLILRB2
Text: (§1) Binding affinity of anti-LILRB1 and anti-LILRB2 antibodies against human LILRB1, LILRB2, LILRA1, LILRA2 and cynomolgus LILRB2 was ranked by measuring dissociation rate constant (Kdis) using the Octet system.

[2] = molecular target: T2, human LILRB1 (human, UniProt Q8NHL6 24-458, limits assumed); assay: Octet off-rate ranking;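 further: antibody dissociation rate constants against cynomolgus LILRB2 plus human LILRB1, LILRB2, LILRA1 and LILRA2, measured on an Octet instrument to rank binding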
T2 construct: also called hLILRB1
Text: as §1

[3] = molecular target: cynomolgus LILRB2 (cynomolgus); assay: Octet off-rate ranking;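 further: antibody dissociation rate constants against cynomolgus LILRB2 plus human LILRB1, LILRB2, LILRA1 and LILRA2, measured on an Octet instrument to rank binding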
Text: as §1

[4] = molecular target: T3, human LILRA2-his (human, UniProt Q8N149 24-449, limits assumed); assay: SPR (Biacore 8K), antibody captured via Fc, LILRA2-his as analyte, 1:1 model
T3 construct: Analyte of the Biacore run; not shown: His tag

[5] = molecular target: T4, human LILRB1-his (human, UniProt Q8NHL6 24-458, limits assumed); assay: SPR (Biacore 8K), antibody captured via Fc, LILRB1-his as analyte, 1:1 model
T4 construct: Analyte of the Biacore run; not shown: His tag

[6] = molecular target: T5, human LILRB2 expressed on CHOK1 cells (human, UniProt Q8N423 22-597); assay: flow cytometry (FACS) binding to CHOK1-hLILRB2 cells
T5 construct: whole, on cells; also called CHOK1-hLILRB2; CHOK1-LILRB2

[7] = molecular target: T6, human LILRB1 expressed on CHOK1 cells (human, UniProt Q8NHL6 24-650); assay: cell based RBA on CHOK1-hLILRB1 cells, flow cytometry; competitor HLA-G
T6 construct: whole, on cells; also called CHOK1-hLILRB1; CHOK1-LILRB1

[8] = molecular target: T5, human LILRB2 expressed on CHOK1 cells; assay: cell based RBA on CHOK1-hLILRB2 cells, flow cytometry; competitor HLA-G
[9] = molecular target: T6, human LILRB1 expressed on CHOK1 cells; assay: flow cytometry (FACS) binding to CHOK1-hLILRB1 cells

T3 sequence (Q8N149 24-449 limits assumed): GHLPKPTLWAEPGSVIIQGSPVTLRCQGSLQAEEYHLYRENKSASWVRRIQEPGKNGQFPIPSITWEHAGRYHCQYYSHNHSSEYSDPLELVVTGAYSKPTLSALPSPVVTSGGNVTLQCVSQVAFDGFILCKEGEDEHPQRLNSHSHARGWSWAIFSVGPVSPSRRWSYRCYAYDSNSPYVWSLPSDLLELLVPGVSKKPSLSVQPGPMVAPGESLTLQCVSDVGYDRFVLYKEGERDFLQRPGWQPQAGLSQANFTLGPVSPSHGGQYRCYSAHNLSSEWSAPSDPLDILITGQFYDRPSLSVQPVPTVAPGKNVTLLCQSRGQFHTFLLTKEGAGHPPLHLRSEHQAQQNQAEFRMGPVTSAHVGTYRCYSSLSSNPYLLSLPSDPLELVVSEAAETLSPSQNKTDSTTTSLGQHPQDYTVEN
T5 sequence (Q8N423 22-597): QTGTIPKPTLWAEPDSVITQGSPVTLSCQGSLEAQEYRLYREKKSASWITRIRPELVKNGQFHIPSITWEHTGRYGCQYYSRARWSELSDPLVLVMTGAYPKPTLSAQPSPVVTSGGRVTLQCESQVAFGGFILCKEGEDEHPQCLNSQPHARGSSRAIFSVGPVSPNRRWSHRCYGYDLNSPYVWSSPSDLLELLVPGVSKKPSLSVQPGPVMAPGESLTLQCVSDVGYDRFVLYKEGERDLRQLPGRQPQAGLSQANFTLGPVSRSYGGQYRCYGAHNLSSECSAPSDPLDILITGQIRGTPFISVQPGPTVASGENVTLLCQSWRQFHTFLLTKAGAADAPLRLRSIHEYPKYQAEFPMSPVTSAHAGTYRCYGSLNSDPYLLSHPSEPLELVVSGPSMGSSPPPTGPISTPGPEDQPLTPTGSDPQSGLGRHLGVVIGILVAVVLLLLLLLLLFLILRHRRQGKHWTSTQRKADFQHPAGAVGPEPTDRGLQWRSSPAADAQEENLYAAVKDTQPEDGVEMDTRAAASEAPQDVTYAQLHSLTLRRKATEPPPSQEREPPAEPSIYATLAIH

Binder	EC50 [6] [nM]	EC50 [7] [µg/mL]	EC50 [8] [µg/mL]	EC50 [9] [nM]	further results
B1					koff [1]: 0.00291 s⁻¹; koff [2]: 0.00186 s⁻¹; koff [3]: 0.00123 s⁻¹
B2					koff [1]: 6.33e-06 s⁻¹; koff [3]: 0.00119 s⁻¹
B3					Kd [4]: 13.3 nM; koff [4]: 0.00286 s⁻¹; kon [4]: 215000 M⁻¹ s⁻¹; Kd [5]: 0.836 nM; koff [5]: 0.000255 s⁻¹; kon [5]: 305000 M⁻¹ s⁻¹
B4					Kd [4]: 6.97 nM; koff [4]: 0.00132 s⁻¹; kon [4]: 189000 M⁻¹ s⁻¹; Kd [5]: 0.927 nM; koff [5]: 0.000224 s⁻¹; kon [5]: 241000 M⁻¹ s⁻¹
B5					Kd [4]: 10.4 nM; koff [4]: 0.00219 s⁻¹; kon [4]: 210000 M⁻¹ s⁻¹; Kd [5]: 0.825 nM; koff [5]: 0.000209 s⁻¹; kon [5]: 253000 M⁻¹ s⁻¹
B6					Kd [4]: 6.77 nM; koff [4]: 0.00126 s⁻¹; kon [4]: 186000 M⁻¹ s⁻¹; Kd [5]: 0.497 nM; koff [5]: 0.000115 s⁻¹; kon [5]: 232000 M⁻¹ s⁻¹
B7	0.8	1.4	0.38	7.15	
B8	1.25	2.12	0.19	1.27	
B9	0.73	1.31	0.57	1.47	
B10	1.58	1.22	0.97	2.51	
B11	1.29	1.03	0.43	1.17	
B12	1.06	0.91	0.5	2.21	
B13	2.22	4.37	2.49	2.31	
B14	1.4	7.26	1.46	5.37	
B15		2.05		1.17	binding result [6]: no binding
B16	0.27		0.46		binding result [9]: no binding
